Where a chain is given by its changes, count along the chain named. In names and notes the source's numbering stands. One block for each binder: values may come before it.
How the values were obtained:
[1] = biological target: T1, human HER2 (human epidermal growth factor receptor 2) (human, UniProt P04626 23-1255); assay: flow cytometry whole cell binding, SKBR3 cells
T1 construct: whole, on cells; also called ERBB2; h-HER2

[2] = biological target: T1, human HER2 (human epidermal growth …); assay: cell-based or functional assay
[3] = biological target: T1, human HER2 (human epidermal growth …); assay: flow cytometry whole cell binding, HCC202 cells
[4] = biological target: T1, human HER2 (human epidermal growth …); assay: flow cytometry whole cell binding, CHO-h-HER2 stable cells
[5] = biological target: human TROP2 (Trophoblast cell-surface antigen 2) (human) (UniProt P09758); assay: flow cytometry whole cell binding, SKBR3 cells
[6] = biological target: human TROP2 (Trophoblast cell-surface antigen 2) (human) (UniProt P09758); assay: flow cytometry, NCI-H441 cells, Immu-132 at 100 nM
[7] = biological target: human TROP2 (Trophoblast cell-surface antigen 2) (human) (UniProt P09758); assay: flow cytometry, HCC202 cells, antibody at 100 nM
[8] = biological target: human TROP2 (Trophoblast cell-surface antigen 2) (human) (UniProt P09758); assay: flow cytometry whole cell binding, CHO-h-TROP2 stable cells
[9] = biological target: human TROP2 (Trophoblast cell-surface antigen 2) (human) (UniProt P09758); assay: cell-based or functional assay
[10] = biological target: human TROP2 (Trophoblast cell-surface antigen 2) (human) (UniProt P09758); assay: flow cytometry whole cell binding, h-TROP2 stably transfected CHO cells
[11] = biological target: human TROP2 (Trophoblast cell-surface antigen 2) (human) (UniProt P09758); assay: flow cytometry whole cell binding, HCC202 cells
[12] = biological target: human TROP2 (Trophoblast cell-surface antigen 2) (human) (UniProt P09758); assay: flow cytometry whole cell binding, NCI-H441 cells
[13] = biological target: human TROP2 (Trophoblast cell-surface antigen 2) (human) (UniProt P09758); assay: flow cytometry, SKOV3 cells
[14] = biological target: human TROP2 (Trophoblast cell-surface antigen 2) (human) (UniProt P09758); assay: flow cytometry whole cell binding, Colo205 cells (endogenous TROP2)
[15] = biological target: human TROP2 (Trophoblast cell-surface antigen 2) (human) (UniProt P09758); assay: flow cytometry, AU-565 cells, Immu-132 at 100 nM
[16] = biological target: human TROP2 (Trophoblast cell-surface antigen 2) (human) (UniProt P09758); assay: flow cytometry, OE-19 cells
[17] = biological target: human TROP2 (Trophoblast cell-surface antigen 2) (human) (UniProt P09758); assay: flow cytometry whole cell binding, CHO-h-TROP2 stable cells; remark: listed apart in the source
[18] = biological target: human TROP2 (Trophoblast cell-surface antigen 2) (human) (UniProt P09758); assay: flow cytometry whole cell binding, NCI-H1975 cells (endogenous TROP2)
[19] = biological target: human TROP2 (Trophoblast cell-surface antigen 2) (human) (UniProt P09758); assay: flow cytometry, SKBR3 cells, antibody at 100 nM
[20] = biological target: T2, human TROP2 (Trophoblast cell-surface antigen 2) (human, UniProt P09758 27-323); assay: flow cytometry whole cell binding, SKBR3
T2 chain: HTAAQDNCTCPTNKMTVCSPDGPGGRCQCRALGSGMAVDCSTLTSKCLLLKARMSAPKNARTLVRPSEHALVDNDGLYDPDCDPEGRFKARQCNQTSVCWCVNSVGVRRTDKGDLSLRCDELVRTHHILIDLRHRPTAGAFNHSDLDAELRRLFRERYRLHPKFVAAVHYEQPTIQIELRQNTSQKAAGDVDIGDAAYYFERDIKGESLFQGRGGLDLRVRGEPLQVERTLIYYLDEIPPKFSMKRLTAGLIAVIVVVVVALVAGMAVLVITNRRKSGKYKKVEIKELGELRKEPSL

[21] = biological target: T3, human TROP2 (Trophoblast cell-surface antigen 2) (human, UniProt P09758 27-323); assay: flow cytometry whole cell binding, CHO-h-TROP2 stable cells
T3 construct: whole, on cells; also called TACSTD2; h-TROP2
T3 sequence (looked up): T2 chain
Description: (§1) Binding of bivalent anti-TROP2 VHH-Fc clones to human TROP2 in human TROP2 stably transfected CHO cells (CHO-h-TROP2 stable cells) were determined by flow cytometry whole cell binding (WCB) assays. Briefly, antibodies were incubated at different concentrations with CHO-h-TROP2 stable cells (0.2×10⁶/ml) in 96-well plates (100 μl/well) in FACS buffer for 30 min. After washing, Alexa Fluor 488 conjugated anti-human IgG Fc secondary antibody was added, and incubated for 30 min. After washing, MFI was measured using CytoFlex by gating live cell population with FITC channel. EC50 of binding was calculated using GraphPad Prism7.0.
Humanization of Alpaca clone 1H11 was carried out using the same strategy. Ten humanized VHH-Fc variants were made with minor difference in Framework 2. The binding activity of humanized variants to human TROP2 was examined using whole cell binding assays.

[22] = biological target: T3, human TROP2 (Trophoblast cell-surface …); assay: flow cytometry whole cell binding, Colo205 cells (endogenous TROP2)
[23] = biological target: T3, human TROP2 (Trophoblast cell-surface …); assay: flow cytometry whole cell binding, h-TROP2 stably transfected CHO cells
Description: as §1

[24] = biological target: T3, human TROP2 (Trophoblast cell-surface …); assay: flow cytometry whole cell binding, NCI-H1975 cells (endogenous TROP2)
[25] = biological target: T3, human TROP2 (Trophoblast cell-surface …); assay: flow cytometry whole cell binding, CHO-h-TROP2 stable cells; remark: listed apart in the source
[26] = biological target: T3, human TROP2 (Trophoblast cell-surface …); assay: as above; remark: listed apart in the source
Description: as §1
The same strategy was carried out for the humanization of Alpaca clone 4C6. Ten humanized VHH-Fc variants were made for 4C6 with minor difference in Framework 2 and Framework 3. Whole cell binding to CHO-h-TROP2 stable cells was performed to compare the binding affinities of these humanized VHH-Fc variants to the parental Alpaca clone 4C6.

EC50 [1]: 2.59 nM
EC50 [3]: 3.25 nM
EC50 [4]: 0.684 nM
B1: 11D5_Fc (antibody, V domains shown)
VH: QVQLVESGGGVVQPGRSLRLSCAASGSTFSSLAMHWVRQAPGKERELVAAISYSGGYTYYADSVKGRFTISRDNSKNTLYLQMNSLRAEDTAVYYCAASSIFIGAYDYWGQGTLVTVSS
notes: monospecific bivalent VHH-Fc with C220S mutation in the hinge region; also called monospecific anti-HER2 (11D5)
IC50, nM, Killing of HCC202 cells by 2nd Ab-MMAE [2]: 0.18 nM
IC50, nM, Killing of SKBR3 cells by 2nd Ab-MMAE [2]: 0.134 nM

EC50 [5]: 128 nM
MFI [6]: 200000 MFI
MFI [7]: 200000 MFI
EC50 [8]: 0.84 nM
EC50 [10]: 2.2 nM
EC50 [11]: 4.02 nM
EC50 [12]: 1.74 nM
MFI [13]: 50000 MFI
EC50 [14]: 1.15 nM
MFI [15]: 90000 MFI
MFI [16]: 30000 MFI
EC50 [17]: 1.16 nM
EC50 [18]: 3.61 nM
MFI [19]: 90000 MFI
B2: Immu-132 (antibody, INN chains, looked up, V domains shown)
VH: QVQLQQSGSELKKPGASVKVSCKASGYTFTNYGMNWVKQAPGQGLKWMGWINTYTGEPTYTDDFKGRFAFSLDTSVSTAYLQISSLKADDTAVYFCARGGFGSSYWYFDVWGQGSLVTVSS
VL: DIQLTQSPSSLSASVGDRVSITCKASQDVSIAVAWYQQKPGKAPKLLIYSASYRYTGVPDRFSGSGSGTDFTLTISSLQPEDFAVYYCQQHYITPLTFGAGTKVEIKR
modifications: unconjugated
IC50, nM, Killing of HCC202 cells by 2nd Ab-MMAE [9]: 0.19 nM
IC50, nM, Killing of NCI-H441 cells by 2nd Ab-MMAE [9]: 0.13 nM
IC50, nM, Killing of SKBR3 cells by 2nd Ab-MMAE [9]: 0.452 nM

B3: Immu-132_MMAE (protein, INN chains, looked up)
VH: B2 VH
VL: DIQLTQSPSSLSASVGDRVSITCKASQDVSIAVAWYQQKPGKAPKLLIYSASYRYTGVPDRFSGSGSGTDFTLTISSLQPEDFAVYYCQQHYITPLTFGAGTKVEIK
modifications: vc-MMAE payload conjugate
IC50 (nM) in ADC mediated killing, NCI-H441 cells, Immu-132 MMAE DAR3.5 [9]: 0.047 nM
IC50 (nM) in ADC mediated killing, NCI-H441 cells, Immu-132 MMAE DAR4.0 [9]: 0.04 nM
IC50 (nM) in ADC mediated killing, NCI-H441 cells, Immu-132 MMAE DAR4.4 [9]: 0.033 nM
IC50, nM, in killing assay, A431 cells [9]: 0.611 nM
IC50, nM, in killing assay, AU-565 cells [9]: 0.0489 nM
IC50, nM, in killing assay, Colo205 cells [9]: 0.45 nM
IC50, nM, in killing assay, N87 cells [9]: 0.092 nM
IC50, nM, in killing assay, NCI-H441 cells [9]: 0.054 nM
IC50, nM, in killing assay, NCI-H1975 cells [9]: 0.25 nM
IC50, nM, in killing assay, OE-19 cells [9]: 1.1 nM
IC50, nM, in killing assay, SK-OV3 cells [9]: 1.44 nM
IC50, nM, in killing assay, SKBR3 cells [9]: 0.0362 nM
IC50, nM, in killing assay, T-47D cells [9]: 0.21 nM

EC50 [20]: 2.14 nM
EC50 [21]: 1.57 nM
EC50 [22]: 1.53 nM
EC50 [23]: 1.84 nM
EC50 [24]: 2.59 nM
B4: anti-TROP2 VHH-Fc clone Alpaca 1H11 (antibody, human IgG1, V domains shown)
VH: LVQLVESGGGLVQAGDSLRLSCTASGGTFSRYIIGWFRQAPGKEREFVTTISGSGGSTYYADSVKGRFTISRDNAKNTVFLQMNSLKPEDTAVYYCASTFYSTTYVAQRDARDYAYWGQGTQVTVSS
notes: domain: hinge region and constant domains (CH2 and CH3); bivalent VHH-Fc, human IgG1 Fc

EC50 [21]: 2.73 nM
EC50 [22]: 1.29 nM
EC50 [24]: 3.04 nM
B5: 1H11-hv9 (humanized VHH-Fc variant of 1H11) (antibody, V domains shown)
VH: EVQLVESGGGLVQPGGSLRLSCAASGGTFSRYIMSWFRQAPGKEREFVSTISGSGGSTYYADSVKGRFTISRDNSKNTLYLQMNSLRAEDTAVYYCASTFYSTTYVAQRDARDYAYWGQGTQVTVSS

EC50 [21]: 2.59 nM
EC50 [22]: 1.19 nM
EC50 [24]: 2.42 nM
B6: 1H11-hv7 (humanized VHH-Fc variant of 1H11) (antibody, V domains shown)
VH: B5 VH with M34I, S35G

EC50 [21]: 1.97 nM
EC50 [22]: 1.29 nM
EC50 [24]: 2.54 nM
B7: 1H11-hv8 (humanized VHH-Fc variant of 1H11, Example 5) (antibody, V domains shown)
VH: B5 VH with S35G
notes: hinge not specified

EC50 [21]: 2.18 nM
EC50 [22]: 1.22 nM
EC50 [24]: 2.7 nM
B8: 1H11-hv6 (humanized VHH-Fc variant of 1H11) (antibody, V domains shown)
VH: B5 VH with M34I, S35G, S49T

EC50 [21]: 2.29 nM
EC50 [22]: 1.71 nM
EC50 [24]: 3.12 nM
B9: 1H11-hv10 (humanized VHH-Fc variant of 1H11, Example 5) (antibody, V domains shown)
VH: B5 VH with T50A
notes: hinge not specified

EC50 [25]: 2.38 nM
B10: 1H11-hv10_Fc (antibody, V domains shown)
VH: B5 VH with T50A
notes: monospecific bivalent VHH-Fc with C220S mutation in the hinge region; also called monospecific anti-TROP2 (1H11-hv10)

EC50 [26]: 1.46 nM
B11: 4C6-hv10 (humanized VHH-Fc variant of 4C6) (antibody, V domains shown)
VH: EVQLVESGGGLVQPGGSLRLSCAASGHPFAMYAMGWFRQAPGKEREFVAAIAGNGGSTSYADSVKGRFTISRDNSKNTLYLQMNSLRAEDTAVYYCAAAGGTFYSGTTVATRSSHYDYWGQGTQVTVSS

EC50 [20]: 1.58 nM
EC50 [23]: 1.37 nM
EC50 [26]: 0.97 nM
B12: anti-TROP2 VHH-Fc clone Alpaca 4C6 (antibody, human IgG1, V domains shown)
VH: B11 VH with E1Q, L4V, P14A, L18Q, A24V, N74Y, S75A, L79N, R87E, A88P
notes: domain: hinge region and constant domains (CH2 and CH3); bivalent VHH-Fc, human IgG1 Fc; also called 4C6 Alpaca

EC50 [26]: 2.32 nM
B13: 4C6-hv9 (humanized VHH-Fc variant of 4C6) (antibody, V domains shown)
VH: B11 VH with A49S, S59Y

EC50 [26]: 2.6 nM
B14: 4C6-hv4 (humanized VHH-Fc variant of 4C6) (antibody, V domains shown)
VH: B11 VH with A49S

Reference: US20260176373A1 (BRIGHT BIOLOGICS, published 2026)
